Assay results from PMC9130890.

Target: autologous SHIV_(1157ipd3N4) gp120 monomer (SHIV_(1157ipd3N4))

B1: unmutated common ancestor (UCA) of the J038 lineage (antibody, V domains shown)
VH: QLQLQESGPGLVKPSETLSLTCAVSGGSISSNYWSWIRQPPGKGLEWIGRISGSGGSTDYNPSLKSRVTISTDTSKNQFSLKLSSVTAADTAVYYCAREVAEDDYGYYQPYFDYWGQGVLVTVSS
VL: DIQMTQSPSSLSASVGDRVTITCRASQGISSYLAWYQQKPGKAPKLLIYAASSLQSGVPSRFSGSGSGTDFTLTISSLQPEDFATYYCQQYNSLPLTFGGGTKVEIK
- neutralisation of the autologous tier 2 1157ipd3N4 pseudovirus on TZM-bl cells, IC50: 4.97 µg mL^−1
